A short description of data set [1]: Plasma protein binding (Centrifree ultrafiltration). Format: in vitro ADME. As to the method: Solutions of test compound in DMSO were prepared at 1 mM, 100 uM and 10 uM, 5 ul of each solution of test compound was added to 495 uL plasma, and incubated at 25° C. for 5 min. Sample was added to a Centrifree® device, then centrifuged at 2000× g for 20 min to obtain desired filtrate volume. Initial plasma samples and ultrafiltrates were subjected to LC-MS/MS. % Free peptide=(concentration of ultrafiltrates/concentration of plasma)×100%. % Bound=100%−% Free

The nature of data set [2]: Mouse plasma stability. Type of data set: in vitro ADME. The following applies: pooled mouse plasma, 37° C. As to the method: FIG. 3. Results of plasma stability testing for control peptides. Compounds shown were incubated in mouse plasma at 37° C. at 1 μM concentrations. 40 ul aliquots were removed at the times indicated and the reactions stopped with the addition of 160 μL cold acetonitrile containing 200 ng/ml of peptide internal standard (IS). The incubation solution was centrifuged at 3500 rpm for 10 minutes to precipitate protein. LC/MS/MS analysis was used to determine the % peptide remaining.
Pooled mouse plasma was prepared and stored at −80° C, prior to use, 396 μL mouse plasma was incubated at 37° C. for 5 minutes in 1.5 mL microcentrifuge tubes. 4 μL of 100 μM test or control compound/peptide was added to each tube and incubated for 0.5, 15, 30, 60, 120, or 240 minutes. An aliquot of 40 μL of each reaction was stopped by the addition of 4 volume of cold acetonitrile containing 200 ng/mL of […] solution was centrifuged at 3500 rpm for 10 minutes to precipitate protein. The supernatant was used for LC/MS/MS analysis. The natural log peak area ratio (compound peak area/internal standard peak area) was plotted against time and the gradient of the line determined.

Data set [3] is described as follows: Pharmacokinetics: plasma and brain concentration after IP injection. Type of data set: in vivo, mouse. Conditions: for Brain concentration, individual mice 1-3 / Plasma concentration, individual mice 1-3: individual animals, listed as setmelanotide. As to the method:
FIG. 5. Pharmacokinetic data for an exemplary peptide relative to setmelanotide. Peptides at 1.5 mg/mL in PBS containing 10% DMSO and 10% PEG-400 were given by IP injection (15 mg/kg) to female CD-1 mice (n=15). At the given time points (0.5 h, 2 h, 4 h, 7 h and 24 h), brain samples were taken out and frozen at −80° C. immediately for later preparation and analysis, and blood samples were collected using heparinized calibrated pipettes. Blood samples were centrifuged at 15000 rpm for 10 min. Subsequently, blood plasma was collected from the upper layer. The plasma was frozen at −80° C. for later analysis. Peptide concentrations at times indicated were determined by LC MS/MS, using non-zero standards in blank Plasma and Brain Samples.
The drug at 1.5 mg/mL in PBS containing 10% DMSO and 10% PEG-400 was given by IP injection (15 mg/kg). At the given time points (0.5 h, 2 h, 4 h, 7 h and 24 h), brain samples were taken out and frozen at −80° C. immediately for later preparation and analysis, and blood samples were collected using heparinized calibrated pipettes. Blood samples were centrifuged at 15000 rpm for 10 min. Subsequently, blood plasma was collected from the upper layer. The plasma was frozen at −80° C. for later analysis.
The analytical curves were constructed using non-zero standards in the blank Plasma and Brain Samples. A blank sample (matrix sample processed without internal standard) was used to exclude contamination. The linear regression analysis of CTX1227/setmelanotide were performed by plotting the peak area ratio (y) against the CTX1227/setmelanotide concentration (x) in ng/mL, respectively.

Data set [4] addresses plasma protein. Nature of the data set: plasma ultrafiltration (Centrifree), LC-MS/MS; peptide 10.0 uM.
The target in data set [5] is plasma protein. The data set is described as follows: plasma ultrafiltration (Centrifree), LC-MS/MS; peptide 1.0 uM.
The target of data set [6] is T1, human MC4R receptor (human, UniProt P32245 1-332). The data set is described as follows: cell-based or functional assay.
For data set [7], the target named is plasma protein. The data set is described as follows: plasma ultrafiltration (Centrifree), LC-MS/MS; peptide 0.1 uM.
Data set [8] deals with T2, human MC3R (human, UniProt P41968 1-323). Nature of the data set: cell-based or functional assay.
The target in data set [9] is T1, human MC4R receptor. Nature of the data set: cell-based or functional assay. The source holds these as a separate data set.
The target of data set [10] is T2, human MC3R. The data set is described as follows: cell-based or functional assay. The source holds these as a separate data set.

What is called fraction unbound is free concentration divided by total concentration. Read a low fraction unbound as extensive binding. As usually defined, the half-life is how long it takes for the measured level to halve. Read a high half-life as slow decline.

“And” between values parts separate entries of the source, which are not always exact repeats. Equal values may be shown once. Read-outs that look alike come from different tables or passages of the source. Positions of bridges follow the written chain, without caps; N, C: chain ends. Non-standard residues stand in square brackets, D forms with d. dPhe(4-Br) = N[C@H](Cc1ccc(Br)cc1)C(=O)O; Cit = NC(=O)NCCC[C@H](N)C(=O)O; Nle = CCCC[C@H](N)C(=O)O; Aib = CC(C)(N)C(=O)O

T1 sequence (P32245 whole entry): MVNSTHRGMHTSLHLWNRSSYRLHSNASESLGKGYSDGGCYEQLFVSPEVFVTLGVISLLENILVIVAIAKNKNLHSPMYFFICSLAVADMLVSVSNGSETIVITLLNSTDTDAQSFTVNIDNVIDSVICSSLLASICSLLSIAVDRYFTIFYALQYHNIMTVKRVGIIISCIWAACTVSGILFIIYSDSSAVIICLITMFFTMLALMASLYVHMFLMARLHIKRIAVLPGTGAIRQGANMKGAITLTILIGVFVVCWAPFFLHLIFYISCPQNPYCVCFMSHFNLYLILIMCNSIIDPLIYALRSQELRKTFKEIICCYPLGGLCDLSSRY
T2 sequence (P41968 whole entry): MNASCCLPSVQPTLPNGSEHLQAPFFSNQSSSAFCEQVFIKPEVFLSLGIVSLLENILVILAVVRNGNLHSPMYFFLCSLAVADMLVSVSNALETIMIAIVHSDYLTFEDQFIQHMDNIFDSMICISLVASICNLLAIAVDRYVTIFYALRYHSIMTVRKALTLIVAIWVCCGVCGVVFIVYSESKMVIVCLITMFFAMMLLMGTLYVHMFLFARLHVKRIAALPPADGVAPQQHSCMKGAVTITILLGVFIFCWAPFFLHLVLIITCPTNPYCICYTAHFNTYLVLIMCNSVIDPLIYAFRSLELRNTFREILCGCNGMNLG

With `CC(=O)N[C@@H](CCCN=C(N)N)C(=O)N[C@H]1CSSC[C@H](C(N)=O)NC(=O)[C@H](Cc2c[nH]c3ccccc23)NC(=O)C(CCCN=C(N)N)NC(=O)[C@@H](Cc2ccccc2)NC(=O)[C@H](Cc2cnc[nH]2)NC(=O)[C@@H](C)NC1=O` (stereo partly drawn) [CTX-1200, Arg-cyclo(Cys-D-Ala-His-D-Phe-Arg-Trp-Cys), reference compound], the fraction unbound at 5 min, 0.1 µM in data set [1] (0.1 uM) was 0.57. In addition, the fraction unbound at 5 min, 1 µM in data set [1] (1.0 uM) is 0.43. The molecule also showed a fraction unbound at 5 min, 10 µM in data set [1] (10.0 uM) of 0.39. For the same molecule, the half-life at 1 µM in data set [2] is greater than 3 h. For the same molecule, the “Brain concentration, individual mice 1-3” value in data set [3] (IP 15 mg/kg, 0.5 h, brain, 15 mg/kg) is 306.5 ng/g and 231.5 ng/g and 247.5 ng/g; in [3] (IP 15 mg/kg, 2 h, brain, 15 mg/kg), 207.5 ng/g and 121.5 ng/g and 220.5 ng/g; in data set [3] (IP 15 mg/kg, 4 h, brain, 15 mg/kg), “BLQ”; in data set [3] (IP 15 mg/kg, 7 h, brain, 15 mg/kg), “BlQ and BLQ (2×)”; in data set [3] (IP 15 mg/kg, 24 h, brain, 15 mg/kg), “BlQ and BLQ (2×)”. The “Plasma concentration, individual mice 1-3” value in [3] (IP 15 mg/kg, 0.5 h, plasma, 15 mg/kg) is 67000 ng/mL and 37200 ng/mL and 25800 ng/mL; in [3] (IP 15 mg/kg, 2 h, plasma, 15 mg/kg) it was 7190 ng/mL and 11000 ng/mL and 4580 ng/mL; in data set [3] (IP 15 mg/kg, 4 h, plasma, 15 mg/kg) it was 455 ng/mL and 9590 ng/mL and 17.8 ng/mL; in data set [3] (IP 15 mg/kg, 7 h, plasma, 15 mg/kg), 64.2 ng/mL and 69.3 ng/mL and 55.3 ng/mL; in data set [3] (IP 15 mg/kg, 24 h, plasma, 15 mg/kg), 8.04 ng/mL and 7.37 ng/mL and 8.81 ng/mL. Besides, the tissue level at time at 0.5 h in data set [3] (female, CD-1, mouse, brain, ip, 15 mg/kg, mice, 0.5 h, mean of 3) is 262 ng/g. In [3] (female, CD-1, mouse, brain, ip, 15 mg/kg, mice, 2 h, mean of 3), this molecule returned a tissue level at time at 2 h of 183 ng/g. This molecule returned a level at 0.5 h in data set [3] (female, CD-1, mouse, mice, IP 15 mg/kg, 0.5 h, plasma, mean of 3) of 43300 ng/mL. This molecule registered a level at 2 h in data set [3] (female, CD-1, mouse, mice, IP 15 mg/kg, 2 h, plasma, mean of 3) of 7590 ng/mL. In data set [3] (female, CD-1, mouse, mice, IP 15 mg/kg, 4 h, plasma, mean of 3), this molecule returned a level at 4 h of 3350 ng/mL. This molecule returned a level at 7 h in [3] (female, CD-1, mouse, mice, IP 15 mg/kg, 7 h, plasma, mean of 3) of 62.9 ng/mL. In addition, in data set [3] (female, CD-1, mouse, mice, IP 15 mg/kg, 24 h, plasma, mean of 3, read-out: Plasma concentration, Mean), the level at 24 h worked out at 8.07 ng/mL.

B1: CTX-1268 (peptide)
peptide: Ac-RCAR[dF]R[dW]C-NH2
modifications: disulfide 2-8
For B1, the Protein Binding (%) in data set [4] came out at 62%; in [5] it was 58%; in data set [7], 52%. In [6], the “MC4R selectivity vs MC1R” value stood at 6.59. Moreover, the “MC4R selectivity vs MC3R” value in data set [6] was 30. Besides, the “% max activation” value was determined as 44% in data set [8] and 96% in data set [9]. For the same molecule, the “cAMP EC50” value in data set [8] was 211 nM; in [9], 7 nM.

B2: CTX-1228 (peptide)
peptide: Ac-R[Nle]CR[dF]RWC-NH2
modifications: disulfide 3-8
SMILES: CCCC[C@H](NC(=O)[C@H](CCCNC(=N)N)NC(C)=O)C(=O)N[C@H]1CSSC[C@@H](C(N)=O)NC(=O)[C@H](Cc2c[nH]c3ccccc23)NC(=O)[C@H](CCCNC(=N)N)NC(=O)[C@@H](Cc2ccccc2)NC(=O)[C@H](CCCNC(=N)N)NC1=O
With B2, the Protein Binding (%) turned out to be 39% in [4], 39% in data set [5] and 37% in [7]. Besides, in data set [6], the “MC4R selectivity vs MC1R” value stood at 3.16. Besides, the “MC4R selectivity vs MC3R” value in data set [6] was found to be 8.38. The “% max activation” value in data set [8] came out at 93%; in data set [9], 102%. Moreover, the “cAMP EC50” value in data set [8] was 1.6 nM; in data set [9], 0.2 nM.

B3: CTX-1211 (peptide)
peptide: Ac-RC[dA]R[dF]RWC-NH2
modifications: disulfide 2-8
SMILES: CC(=O)N[C@@H](CCCNC(=N)N)C(=O)N[C@H]1CSSC[C@@H](C(N)=O)NC(=O)[C@H](Cc2c[nH]c3ccccc23)NC(=O)[C@H](CCCNC(=N)N)NC(=O)[C@@H](Cc2ccccc2)NC(=O)[C@H](CCCNC(=N)N)NC(=O)[C@@H](C)NC1=O
As for B3, the Protein Binding (%) in data set [4] came out at 61%; in data set [5], 63%; in [7], 51%. The “MC4R selectivity vs MC1R” value in data set [6] worked out at 3.12. Moreover, the “MC4R selectivity vs MC3R” value in data set [6] turned out to be 5.49. Moreover, the results for the “% max activation” value in data set [8] and in data set [9] were 91% and 96%, respectively. For the same molecule, the figures for the “cAMP EC50” value in data set [8] and in data set [9] were 2.1 nM and 0.38 nM, respectively.

B4: CTX-1285 (peptide)
peptide: Ac-RC[dA][Cit][dF]RWC-NH2
modifications: disulfide 2-8
For the molecule B4, the Protein Binding (%) amounted to 41% in data set [4], 39% in data set [5] and 45% in data set [7]. The “MC4R selectivity vs MC1R” value in data set [6] came to 134. The “MC4R selectivity vs MC3R” value in data set [6] was determined as 2.9. Moreover, the “% max activation” value in [8] came to 28%; in data set [9], 94%. Besides, the entries for the “cAMP EC50” value in data set [8] and in [9] were 4.9 nM and 1.7 nM, respectively.

B5: CTX-1246 (peptide)
peptide: Ac-RC[Aib]R[dPhe(4-Br)]R[dW]C-NH2
modifications: disulfide 2-8
SMILES: CC(=O)N[C@@H](CCCNC(=N)N)C(=O)N[C@H]1CSSC[C@@H](C(N)=O)NC(=O)[C@@H](Cc2c[nH]c3ccccc23)NC(=O)[C@H](CCCNC(=N)N)NC(=O)[C@@H](Cc2ccc(Br)cc2)NC(=O)[C@H](CCCNC(=N)N)NC(=O)C(C)(C)NC1=O
On to B5, for which the values for the Protein Binding (%) in [4], in [5] and in data set [7] were 43%, 44% and 73%, respectively. For the same molecule, the “% max activation” value in data set [10] turned out to be 21%.

B6: CTX-1227 (peptide)
peptide: Ac-R[Nle]CH[dF]RWC-NH2
modifications: disulfide 3-8
SMILES: CCCC[C@H](NC(=O)[C@H](CCCNC(=N)N)NC(C)=O)C(=O)N[C@H]1CSSC[C@@H](C(N)=O)NC(=O)[C@H](Cc2c[nH]c3ccccc23)NC(=O)[C@H](CCCNC(=N)N)NC(=O)[C@@H](Cc2ccccc2)NC(=O)[C@H](Cc2c[nH]cn2)NC1=O
B6: the values for the Protein Binding (%) in data set [4], in data set [5] and in data set [7] were 54%, 47% and 50%, respectively. Further, the “MC4R selectivity vs MC1R” value in data set [6] came to 0.92. In addition, the “MC4R selectivity vs MC3R” value in data set [6] was found to be 11. Besides, the “% max activation” value in [8] was 96%; in [9], 103%. For the same molecule, the “cAMP EC50” value in data set [8] turned out to be 2.8 nM; in data set [9], 0.3 nM.

(Values after patent US20240391954A1, “MC4R AGONIST PEPTIDES” (The Regents of the University of Michigan, priority 2021, published 2024).)
